# Data: article PMC8174033, “FEZ1 Forms Complexes with CRMP1 and DCC to Regulate Axon and Dendrite Development” (eNeuro, 2021)
# T1: FEZ1 (amino acids 1-308), EmGFP-tagged (UniProt Q99689 1-308)
# T1 construct: FEZ1, amino acids 1-308; plasmid as described in Chua et al., 2012; also called truncated FEZ1 lacking its C terminus; source: HEK293, transfected, in lysate
# T1 sequence (looked up): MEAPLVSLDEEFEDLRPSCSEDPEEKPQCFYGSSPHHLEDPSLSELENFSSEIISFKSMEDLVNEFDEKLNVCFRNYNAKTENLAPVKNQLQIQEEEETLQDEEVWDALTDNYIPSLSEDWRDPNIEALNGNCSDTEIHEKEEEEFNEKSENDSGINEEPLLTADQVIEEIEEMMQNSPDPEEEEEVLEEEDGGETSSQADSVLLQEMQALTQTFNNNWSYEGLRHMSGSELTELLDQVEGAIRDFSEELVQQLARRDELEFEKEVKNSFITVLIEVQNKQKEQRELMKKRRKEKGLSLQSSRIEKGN
# Biological target: T1, FEZ1 (amino acids 1-308), EmGFP-tagged
# Assay: co-IP; HEK293 cells co-expressing the two tagged proteins, 24 h after transfection; lysis and washes in 50 mM HEPES, 150 mM NaCl, 1 mM EDTA, 1% Triton X-100, pH 7.2; GFP-Trap agarose beads 1-3 h at 4°C; immunoblot
# Settings: partners not purified
binder,measurement,value
"collapsin response mediator protein 1 (CRMP1), full-length, FLAG-tagged (natural protein, CRMP1, human cDNA, full-length, in pFLAG-CMV2; also called FLAG-CRMP1; source: HEK293, transfected, in lysate) not shown",fold change of co-precipitated CRMP1 against full-length FEZ1,~3 fold
